Data published in patent US6475775B1, “PARG, a GTPase activating protein which interacts with PTPL1” (Ludwig Institute for Cancer Research, priority 1997, dated 2002).
Each block holds one molecule with its values, some of them ahead of it.

Experiments:
GST-PDZ 4-5 of PTPL1 = biological target: T1, GST-PDZ 4-5 of PTPL1 (Homo sapiens, UniProt Q12923); assay: Binding of GST-PDZ fusion proteins to C-terminal PARG peptide; conditions: peptide on Affigel 15 beads; 50 nM fusion protein; 4° C., 2 h; α-GST immunoblot
T1 construct: GST-PDZ 4-5, residues 1762-1960; made in house; host or cells: E. coli
T1 sequence (Q12923 1762-1960 isoform Q12923-3): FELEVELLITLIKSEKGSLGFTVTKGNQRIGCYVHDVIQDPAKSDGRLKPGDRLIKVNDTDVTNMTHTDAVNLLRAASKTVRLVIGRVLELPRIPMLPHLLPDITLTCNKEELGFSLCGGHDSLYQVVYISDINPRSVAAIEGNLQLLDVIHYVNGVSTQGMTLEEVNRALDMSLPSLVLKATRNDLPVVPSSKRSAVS
Description: (§1) To identify proteins that bind to the PDZ domains of PTPL1, regions of PTPL1 cDNA corresponding to the various PDZ domains were produced by polymerase chain reaction and subcloned into the GST fusion protein expression vector pGEX1λT (Pharmacia): GST-PDZ 1. amino acid residues 1066-1166 of PTPL1; GST-PDZ 2-3. residues 1340-1579; GST-PDZ 3, residues 1469-1579; GST-PDZ 4, residues 1762-1864; GST-PDZ 4-5, residues 1762-1960 and GST-PDZ 5, residues 1856-1960 (FIG. 1A). Domains and motifs indicated in FIG. 1A are: L, leucine zipper motif; Band 4.1, a domain of 300 amino acid residues with homology to the Band 4.1 superfamily; P, PDZ domain; PTP, protein tyrosine phosphatase catalytic domain; GST, glutathione S-transferase. The different expression vector constructs were transformed into E. coli. Glutathione S-transferase (GST) fusion proteins were produced and purified as described by Ridley and Hall (Cell 70: 389-399, 1992) and then subjected to sodium dodecyl sulfate (SDS)-gel electrophoresis.
(§2) It has been shown that PDZ domains interact with the C-terminal ends of short peptides and that a valine residue at the absolute C-terminal end is important for binding (Kim et al., 1995; Komau et al., 1995; Saras et al., in preparation). […]

[1] = biological target: T2, PDZ 4 of PTPL1 (GST-PDZ 4) (Homo sapiens, UniProt Q12923); assay: as above; conditions: peptide on Affigel 15 beads; 50 nM fusion protein; 4° C., 2 h; α-GST immunoblot
T2 construct: GST-PDZ 4, residues 1762-1864; made in house; host or cells: E. coli
T2 sequence (Q12923 1762-1864 isoform Q12923-3): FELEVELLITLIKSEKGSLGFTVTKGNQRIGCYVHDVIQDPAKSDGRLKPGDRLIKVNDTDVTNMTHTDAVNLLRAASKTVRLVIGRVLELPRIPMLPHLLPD
Description: as §1, §2

Rho = biological target: T3, Rho (Homo sapiens, UniProt P61586); assay: GAP activity of PARG GAP domain (GTP hydrolysis, filter binding); assay type: biochemical; conditions: 1 nM GST-GAP; Rho preloaded with γ-32P-GTP; 30° C.
T3 construct: GST (N, cleaved yes); made in house; host or cells: E. coli
Description: (§3) In order to determine the GAP activity of PARG on proteins of the Rho family, the GAP domain of PARG was produced as a GST fusion protein in E. coli (FIG. 5A). Briefly, a DNA fragment coding for the GAP domain, i.e., amino acid residues 658-898, of PARG was produced by polymerase chain reaction and subcloned into pGEX1λT and referred to as GST-GAP. pGEX2T-based expression vectors containing RhoA, Rac1 and Cdc42 (G25K isoform) cDNAs were obtained from Dr. A. Hall (MRC Laboratory for Molecular Cell Biology and Department of Biochemistry, University College London, UK). These different expression vector constructs were transformed into E. coli. The GST fusion proteins were produced and purified essentially as described above in Example 1. Recombinant Rho, Rac and Cdc42 proteins were subjected to thrombin cleavage (Ridley and Hall, 1992).
(§4) Recombinant Rho, Rac and Cdc42 were preloaded with γ-^32P-GTP and incubated for various time periods in the presence of the GST-GAP fusion protein or, as control, GST protein. Thereafter, the radioactivity bound to the GTPase was determined as a measurement of the GTP hydrolysis activity. Briefly, 200 nM aliquots of recombinant Rho, Rac and Cdc42 were incubated at 30° C. with 10 μCi γ-^32P-GTP in 20 mM Tris-HCI, pH 7.5, 25 mM NaCl, 4 mM EDTA, 0.1 mM dithiothreitol, and the nucleotide exchange was stopped after 10 min by the addition of 17 mM MgCl2. Proteins (100 nM GST, 1 nM or 20 nM of GST-GAP fusion protein) were added to the reaction mixture and aliquots of 5 μl were withdrawn and collected on nitrocellulose filters (HA, Millipore, Bedford, Mass.) at 3 min intervals. The filters were washed with cold buffer (50 mM Tris-HCI pH 7.5, 50 mM NaCl, 5 mM MgCl2), dried and subjected to scintillation counting. The amount of protein-bound radioactivity is expressed as the percentage of the total input.

Cdc42 = biological target: T4, Cdc42 (Homo sapiens, UniProt P60953); assay: as above; assay type: biochemical; conditions: Cdc42 preloaded with γ-32P-GTP, 30° C.
T4 construct: GST (N, cleaved yes); made in house; host or cells: E. coli
Description: as §3, §4

Rac = biological target: T5, Rac (Homo sapiens, UniProt P63000); assay: as above; assay type: biochemical; conditions: Rac preloaded with γ-32P-GTP, 30° C.
T5 construct: GST (N, cleaved yes); made in house; host or cells: E. coli
Description: as §3, §4

T4 sequence (P60953 1-191 isoform P60953-1): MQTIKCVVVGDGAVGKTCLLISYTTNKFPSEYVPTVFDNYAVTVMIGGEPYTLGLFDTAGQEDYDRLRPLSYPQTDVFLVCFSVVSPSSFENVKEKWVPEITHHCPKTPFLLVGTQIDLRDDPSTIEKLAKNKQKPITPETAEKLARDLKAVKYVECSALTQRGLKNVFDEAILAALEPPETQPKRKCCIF
T3 sequence (P61586 whole entry, the tested form may be a part): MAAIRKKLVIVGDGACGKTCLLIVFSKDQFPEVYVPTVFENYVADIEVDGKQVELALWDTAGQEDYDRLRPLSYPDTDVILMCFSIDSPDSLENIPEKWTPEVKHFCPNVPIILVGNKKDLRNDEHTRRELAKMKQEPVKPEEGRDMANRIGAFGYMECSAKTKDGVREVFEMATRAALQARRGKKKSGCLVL

binding of GST-PDZ 4-5 to the peptide (GST-PDZ 4-5 of PTPL1): bound | binding of GST-PDZ 4 to the peptide [1]: bound
Molecule: PQFV (listed as Homo sapiens) [synthetic peptide, last 4 C-terminal amino acid residues of PARG]

GAP activity on Rho (Rho): strong GAP activity | GAP activity on Cdc42 (Cdc42; 1 nM GST-GAP): no GAP activity | GAP activity on Cdc42 (Cdc42; 20 nM GST-GAP): active | GAP activity on Rac (Rac; 1 nM GST-GAP): no GAP activity | GAP activity on Rac (Rac; 20 nM GST-GAP): active
B1: GST-GAP fusion protein: GAP domain, amino acid residues 658-898 of PARG, produced as a GST fusion protein in E. coli (protein)
chain: GHQKLPGKIHLFGAEFTLVAKKEPDGIPFILKICASEIENRALCLQGIYRVCGNKIKTEKLCLALENGMHLVDISEFSSHDICDVLKLYLRQLPEPFILFRLYKEFIDLAKEIQHVNEEQETKKNSLEDKKWPNMCIEINRILLKSKDLLRQLPASNFNSLHFLIVHLKRVVDHAEENKMNSKNLGVIFGPSLIRPRPQTAPITISSLAEYSNQARLVEFLITYSQKIFDGSLQPQDVMCS
modifications: left off: a dimerising Fc or GST
notes: GAP domain, amino acid residues 658-898 of PARG, produced as a GST fusion protein in E. coli
